According to patent publication US20230330254A1 (Regeneron, published 2023):
Like-named read-outs stand apart in the source and are kept apart here.

Legend:
[1] = target: T1, N-terminal ectodomain of human GLP1R expressed with a myc-myc hexahistidine tag (human, UniProt P43220 24-145, limits assumed); assay: SPR, captured via anti-hFc, 25 C
T1 construct: extracellular domain; also called hGLP1R-MMH; hGLP1R.mmh

[2] = target: T2, full-length human GLP1R on HEK293/CRE-Luc/hGLP1R cells (human, UniProt P43220 24-463); assay: cell-based or functional assay
[3] = target: T1, N-terminal ectodomain of human GLP1R …; assay: SPR, captured via anti-hFc, 25 C; remark: listed apart in the source
[4] = target: T3, full-length cynomolgus GLP1R on HEK293/CRE-Luc/mfGLP1R cells (cynomolgus, UniProt F8V479 24-463); assay: flow cytometry, mfGLP1R cells
T3 construct: whole, on cells

[5] = target: T2, full-length human GLP1R on …; assay: flow cytometry, hGLP1R cells
[6] = target: T2, full-length human GLP1R on …; assay: cell-based or functional assay; remark: listed apart in the source

T1 sequence (P43220 24-145 limits assumed): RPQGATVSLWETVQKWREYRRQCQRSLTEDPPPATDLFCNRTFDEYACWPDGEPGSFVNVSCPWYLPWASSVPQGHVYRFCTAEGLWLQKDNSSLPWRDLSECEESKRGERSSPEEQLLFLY

Binder	90 nM hGLP1R.mmh Bound (RU) [3] [RU]	Kd [3] [nM]	t1/2 [3] [min]	EC50 [4] [nM]	Flow S/N [4] [fold]	EC50 [5] [nM]	Flow S/N [5] [fold]	further results
REGN9278-M3190 (antibody, human IgG4 S228P, kappa, V domains shown, linker-payload M3190 (LP11) on Gln 3 of the N-terminal Q-tag LLQGSG, antibody-tethered drug conjugate; also called REGN9278 ATDC) VH: QVQLQQWGAGLLKPSETLSLTCAVYGGSFSGYYWSWIRQPPGKGLEWIGEINHAGSTNYNPSLKSRITISVDTSKNQFSLKLSSVTAADTAVYYCARGWYYGSGSYHRNWFDPWGQGTLVTVSS VL: EIVLTQSPGTLSLSPGERATLSCRASQSVYYSYLAWYQQKPGQAPRLLIYGASNRATGIPDRFSGSGSGTDFTLTISRLEPEDFAVYYCQQYGNSPWTFGQGTKVEIKR	–	–	–	–	–	–	–	90 nM hGLP1R.mmh Bound (RU) [1]: 55.7 RU; Kd [1]: 1.1 nM; koff [1]: 0.000127 s⁻¹; kon [1]: 116000 M⁻¹ s⁻¹; t1/2 [1]: 91 min; CRE-luc EC50 [2]: 0.376 nM; CRE-luc Relative Potency (% M2361 EC50) [2]: 4.3%; CRE-luc Relative Signal:Noise (% M2361) [2]: 115%; CRE-luc S/N [2]: 73.8 fold
H2aM30341N (antibody, V domains shown, parent of H4H30341N (REGN9278 without Q-tag); also called parent of REGN9278) VH: QVQLQQWGAGLLKPSETLSLTCAVYGGSFSGYYWSWIRQPPGKGLEWIGEINHAGSTNYNPSLKSRITISVDTSKNQFSLKLSSVTAADTAVYYCARGWYYGSGSYHRNWFDPWGQGTLVTVSS VL: EIVLTQSPGTLSLSPGERATLSCRASQSVYYSYLAWYQQKPGQAPRLLIYGASNRATGIPDRFSGSGSGTDFTLTISRLEPEDFAVYYCQQYGNSPWTFGQGTKVEIK	48.4	0.346	149	2.1	646	2.75	595	koff [3]: 7.74e-05 s⁻¹; kon [3]: 224000 M⁻¹ s⁻¹
REGN9278 (antibody, human IgG4 S228P, kappa, V domains shown, IgG4; Q-tag on light chain N-terminus; also called mAb 19; REGN9278 unconjugated Ab) VH: QVQLQQWGAGLLKPSETLSLTCAVYGGSFSGYYWSWIRQPPGKGLEWIGEINHAGSTNYNPSLKSRITISVDTSKNQFSLKLSSVTAADTAVYYCARGWYYGSGSYHRNWFDPWGQGTLVTVSS VL: EIVLTQSPGTLSLSPGERATLSCRASQSVYYSYLAWYQQKPGQAPRLLIYGASNRATGIPDRFSGSGSGTDFTLTISRLEPEDFAVYYCQQYGNSPWTFGQGTKVEIKR	–	–	–	2.49	548	4.21	436	–
REGN9267 (antibody, human IgG4 S228P, kappa, IgG4; Q-tag on heavy chain N-terminus; also called mAb 5; REGN9267 unconjugated Ab) heavy: not shown light: EIVLTQSPGTLSLSPGERDTLSCRASQSIAGRYVAWYQQKPGQAPRLLIYGASSRATGIPDRFSGSGSGTDFTLTISRLEPEDFAVYYCQQYGSSPWTFGQGTKVEIKRTVAAPSVFIFPPSDEQLKSGTASVVCLLNNFYPREAKVQWKVDNALQSGNSQESVTEQDSKDSTYSLSSTLTLSKADYEKHKVYACEVTHQGLSSPVTKSFNRGEC	–	–	–	0.668	–	0.944	–	–
REGN8051 (antibody, V domains shown, parental antibody without Q-tag; also called parent of REGN8070) VH: QVQLVESGGGVGQPGRSLRLSCAASGFTFSRNAMHWVRQAPGKGLEWVAVISYDGSNKHYADSVKGRFTISRDNSKNTLYLEMNSLRVEDTAVYYCAKGGIPFDYWGQGTLVTVSS VL: DIVMTQSPLSSPVTLGQPASISCRSSQSLVHFDGNTYLSWLHQRPGQPPRLLIYKISNRFSGVPDRFSGSGAGTDFTLKISRVEPEDVGVYYCMHATQFPYTFGQGTKLEIK	73.7	3.41	54.7	4.12	494	7.39	560	koff [3]: 0.000211 s⁻¹; kon [3]: 61900 M⁻¹ s⁻¹
REGN8070 (antibody, human IgG4 S228P, kappa, V domains shown, IgG4; Q-tag on light chain N-terminus; also called mAb 16; REGN8070 unconjugated Ab) VH: QVQLVESGGGVGQPGRSLRLSCAASGFTFSRNAMHWVRQAPGKGLEWVAVISYDGSNKHYADSVKGRFTISRDNSKNTLYLEMNSLRVEDTAVYYCAKGGIPFDYWGQGTLVTVSS VL: DIVMTQSPLSSPVTLGQPASISCRSSQSLVHFDGNTYLSWLHQRPGQPPRLLIYKISNRFSGVPDRFSGSGAGTDFTLKISRVEPEDVGVYYCMHATQFPYTFGQGTKLEIKR	–	–	–	2.05	246	3.44	322	–
REGN7988-M3190 (antibody, human IgG4 S228P, kappa, V domains shown, linker-payload M3190 (LP11) on Gln 3 of the N-terminal Q-tag LLQGSG) VH: QVQLVESGGGVVQPGRSLRLSCAASGFTFSGYGIHWVRQAPGKGLVWVAVIWYDGSFKYYADSVKGRFTISRDNSKNTLYLQMNSLRAEDTAVYYCARGDSSSSGRYYYYGMDVWGQGTTVTVSS VL: DIQMTQSPSSLSASVGDRVTITCRASQGIRNDLGWYQQKPGTAPKRLIFAASSLQSGVPSRFSGSGSGTEFTLTISSLQPEDFATYYCLQHNNYPPTFGGGTKVEIKR	–	–	–	–	–	–	–	CRE-luc EC50 [2]: 0.107 nM; CRE-luc Relative Potency (% M2361 EC50) [2]: 15.1%; CRE-luc Relative Signal:Noise (% M2361) [2]: 140%; CRE-luc S/N [2]: 90.1 fold
H4H30452P (antibody, V domains shown, parental antibody without Q-tag; also called parent of REGN7990) VH: not shown VL: DIQMTQSPSSVSASVGDRVTITCRASQGINSWLAWYQQKPGKAPKLLIYAASSLQSGVPSRFSGSGSGTDFTLTISSLQPEDFATYYCHQADSFPYTFGQGTKLEIK	88.9	5.4	9.8	–	–	1.68	115	koff [3]: 0.00118 s⁻¹; kon [3]: 218000 M⁻¹ s⁻¹
REGN8052 (antibody, V domains shown, parental antibody without Q-tag; also called parent of REGN8072) VH: QVQLVESGGGVVQPARSLRLSCAASGFAFSRSAMHWVRQAPGKGLEWVAVISYDGSNKYYTDSVKGRFTISRDNSKNTLYLQMNTLRAEDTALYYCAKMYTTMDSFDYWGQGTLVTVSS VL: DIQLTQSPSFLSASVGDRVTITCWASQGISSYLAWYQQKPGKAPKLLIYAASTLQSGVPSRFSGSGSGTEFTLTISSLQPEDFALYYCQQLNSYPRTFGQGTKVEIK	98.7	5.49	9.6	2.13	–	0.705	–	–
REGN8072 (antibody, human IgG4 S228P, kappa, V domains shown, IgG4; Q-tag on light chain N-terminus; also called mAb 4; REGN8072 unconjugated Ab) VH: QVQLVESGGGVVQPARSLRLSCAASGFAFSRSAMHWVRQAPGKGLEWVAVISYDGSNKYYTDSVKGRFTISRDNSKNTLYLQMNTLRAEDTALYYCAKMYTTMDSFDYWGQGTLVTVSS VL: DIQLTQSPSFLSASVGDRVTITCWASQGISSYLAWYQQKPGKAPKLLIYAASTLQSGVPSRFSGSGSGTEFTLTISSLQPEDFALYYCQQLNSYPRTFGQGTKVEIKR	–	–	–	–	–	1.42	–	–
COMP Anti-GLP1R mAb1 conjugated to LP4 (antibody, human IgG4 S228P, kappa, V domains shown, azido-PEG3-amine on the Gln of the N-terminal Q-tag LLQGSG, clicked to LP4 (DIBAC-suc-PEG24-P9)) VH: QVTLKESGPGILQPSQTLSLTCSFSGFSLSTSGTGVGWIRQPSGKGLEWLSHIWWDDVKRYNPALKSRLTISRDTSYSQVFLRIASVDTADTATYYCARILDGTGPMDYWGQGTSVTVSS VL: QIVLTQSPAIMSASPGEKVTMTCSASSRVTYMHWYQQRSGTSPKRWIYDTSKLASGVPARFSGSGSGTSYSLTISSMEAEDAATYYCQQWGNNPQYTFGGGTRLEIKR	–	–	–	–	–	–	–	CRE-luc EC50 [6]: 0.0629 nM; CRE-luc Relative Potency (% P8 EC50) [6]: 55.3%; CRE-luc Relative Signal:Noise (% P8) [6]: 87.4%; CRE-luc S/N [6]: 284 fold
COMP Anti-GLP1R mAb1 conjugated to LP1 (antibody, human IgG4 S228P, kappa, V domains shown, azido-PEG3-amine on the Gln of the N-terminal Q-tag LLQGSG, clicked to LP1 (DIBAC-suc-PEG4-P9)) VH: QVTLKESGPGILQPSQTLSLTCSFSGFSLSTSGTGVGWIRQPSGKGLEWLSHIWWDDVKRYNPALKSRLTISRDTSYSQVFLRIASVDTADTATYYCARILDGTGPMDYWGQGTSVTVSS VL: QIVLTQSPAIMSASPGEKVTMTCSASSRVTYMHWYQQRSGTSPKRWIYDTSKLASGVPARFSGSGSGTSYSLTISSMEAEDAATYYCQQWGNNPQYTFGGGTRLEIKR	–	–	–	–	–	–	–	CRE-luc EC50 [6]: 0.0282 nM; CRE-luc Relative Potency (% P8 EC50) [6]: 96.7%; CRE-luc Relative Signal:Noise (% P8) [6]: 90.3%; CRE-luc S/N [6]: 213 fold
COMP Anti-GLP1R mAb1 conjugated to LP3 (antibody, human IgG4 S228P, kappa, V domains shown, azido-PEG3-amine on the Gln of the N-terminal Q-tag LLQGSG, clicked to LP3 (DIBAC-suc-PEG12-P9)) VH: QVTLKESGPGILQPSQTLSLTCSFSGFSLSTSGTGVGWIRQPSGKGLEWLSHIWWDDVKRYNPALKSRLTISRDTSYSQVFLRIASVDTADTATYYCARILDGTGPMDYWGQGTSVTVSS VL: QIVLTQSPAIMSASPGEKVTMTCSASSRVTYMHWYQQRSGTSPKRWIYDTSKLASGVPARFSGSGSGTSYSLTISSMEAEDAATYYCQQWGNNPQYTFGGGTRLEIKR	–	–	–	–	–	–	–	CRE-luc EC50 [6]: 0.044 nM; CRE-luc Relative Potency (% P8 EC50) [6]: 62.1%; CRE-luc Relative Signal:Noise (% P8) [6]: 115%; CRE-luc S/N [6]: 272 fold
COMP Anti-GLP1R mAb1 conjugated to LP2 (antibody, human IgG4 S228P, kappa, V domains shown, azido-PEG3-amine on the Gln of the N-terminal Q-tag LLQGSG, clicked to LP2 (DIBAC-suc-PEG8-P9)) VH: QVTLKESGPGILQPSQTLSLTCSFSGFSLSTSGTGVGWIRQPSGKGLEWLSHIWWDDVKRYNPALKSRLTISRDTSYSQVFLRIASVDTADTATYYCARILDGTGPMDYWGQGTSVTVSS VL: QIVLTQSPAIMSASPGEKVTMTCSASSRVTYMHWYQQRSGTSPKRWIYDTSKLASGVPARFSGSGSGTSYSLTISSMEAEDAATYYCQQWGNNPQYTFGGGTRLEIKR	–	–	–	–	–	–	–	CRE-luc EC50 [6]: 0.0217 nM; CRE-luc Relative Potency (% P8 EC50) [6]: 126%; CRE-luc Relative Signal:Noise (% P8) [6]: 96.4%; CRE-luc S/N [6]: 227 fold
H4H30484P2 (antibody, V domains shown, parental antibody without Q-tag; also called parent of REGN5619) VH: EVQLVESGGGLVQPGGSLKLSCAASGFTFSGSAMHWVRQASGKGLEWVGRITSKANSYATAYDASVKGRFTISRDDSKNTAYLQMNSLKTEDTAVYYCTRQRFLEFLFLDYWGQGTLVTVSS VL: not shown	26	181	0.3	0.963	284	1.98	208	koff [3]: 0.039 s⁻¹; kon [3]: 215000 M⁻¹ s⁻¹
H1M30345N (antibody, V domains shown) VH: EVQLVESGGGLVKPGGSLRLSCAASGFIFSRYSMNWVRQAPGKGLEWVSSMSSNSKNTYYADSVKGRFTISRDNAKNSLFLQMNTLRAEDTAVYYCARDGYTLRAFDIWGQGTMVTVSS VL: EIVLTQSPGTLSLSPGERDTLSCRASQSIAGRYVAWYQQKPGQAPRLLIYGASSRATGIPDRFSGSGSGTDFTLTISRLEPEDFAVYYCQQYGSSPWTFGQGTKVEIK	61.7	0.16	102	3.54	–	1.64	–	–
